Test results taken from patent US20240117030A1 (Pfizer, published 2024).

B1: IL33-0698 (antibody, IgG1, V domains shown)
VH: EVQLVESGGGLVQPGGSLRLSCAASGFTFSSYWMYWVRQAPGKGLEWVAAITPNAHAGYYPESVKGRFTISRDNAKNSLYLQMNSLRAEDTAVYYCARGHYYYTSYSLGYWGQGTLVTVSS
VL: DIQMTQSPSSLSASVGDRVTITCRASQPISKHLDWYQQKPGKAPKLLIYFTNNLQTGVPSRFSGSGSGTDFTLTISSLQPEDFATYYCFQYKQGWTFGGGTKVEIK
B2: IL33-0710 (antibody, IgG1, V domains shown)
VH: EVQLVESGGGLVQPGGSLRLSCAASGFTFSSYWMYWVRQAPGKGLEWVAAITPNAHAGYYPESVKGRFTISRDNAKNSLYLQMNSLRAEDTAVYYCARGHYYYTSYSLGYWGQGTLVTVSS
VL: DIQMTQSPSSLSASVGDRVTITCRASQPISKHLDWYQQKPGKAPKLLIYFTKNLVTGVPSRFSGSGSGTDFTLTISSLQPEDFATYYCFQYNQGWTFGGGTKVEIK
B3: IL33-0701 (antibody, IgG1, V domains shown)
VH: EVQLVESGGGLVQPGGSLRLSCAASGFTFSSYWMYWVRQAPGKGLEWVAAITPNKGVDYYPESVKGRFTISRDNAKNSLYLQMNSLRAEDTAVYYCARGHYYYTSYSLGYWGQGTLVTVSS
VL: DIQMTQSPSSLSASVGDRVTITCRASQPISKHLDWYQQKPGKAPKLLIYFTNNLQTGVPSRFSGSGSGTDFTLTISSLQPEDFATYYCFQYKQGWTFGGGTKVEIK
B4: IL33-0712 (antibody, IgG1, V domains shown)
VH: EVQLVESGGGLVQPGGSLRLSCAASGFTFSSYWMYWVRQAPGKGLEWVAAITPNAHAGYYPESVKGRFTISRDNAKNSLYLQMNSLRAEDTAVYYCARGHYYYTSYSLGYWGQGTLVTVSS
VL: DIQMTQSPSSLSASVGDRVTITCRASQPISKHLDWYQQKPGKAPKLLIYFTKNLQSGVPSRFSGSGSGTDFTLTISSLQPEDFATYYCFQYNQGWTFGGGTKVEIK
B5: IL33-0711 (antibody, IgG1, V domains shown)
VH: EVQLVESGGGLVQPGGSLRLSCAASGFTFSSYWMYWVRQAPGKGLEWVAAITPNAHAGYYPESVKGRFTISRDNAKNSLYLQMNSLRAEDTAVYYCARGHYYYTSYSLGYWGQGTLVTVSS
VL: DIQMTQSPSSLSASVGDRVTITCRASQPISKHLDWYQQKPGKAPKLLIYFTKNLKTGVPSRFSGSGSGTDFTLTISSLQPEDFATYYCFQYNQGWTFGGGTKVEIK
B6: IL13-1308 (antibody, IgG1, V domains shown)
VH: EVQLVESGGGLVQPGGSLRLSCAASGFTFSSYAMSWVRQAPGKGLEWVASISSGDTTYYPDSVKGRFTISRDNAKNSLYLQMNSLRAEDTAVYYCARLDGYYFGFPYWGQGTLVTVSS
VL: DIQMTQSPSSLSASVGDRVTITCKASESVDHFGWSLVHWYQQKPGKAPKLLIYRASNLESGVPSRFSGSGSGTDFTLTISSLQPEDFATYYCQQSNEDPWTFGGGTKVEIKR
B7: IL13-1338 (antibody, IgG1, V domains shown)
VH: EVQLVESGGGLVQPGGSLRLSCAASGFTFSSYAMSWVRQAPGKGLEWVASISSGDTTYYPDSVKGRFTISRDNAKNSLYLQMNSLRAEDTAVYYCARNEGYYFGLTLWGQGTLVTVSS
VL: DIQMTQSPSSLSASVGDRVTITCKASESVDHSGSSLMHWYQQKPGKAPKLLIYRASNLESGVPSRFSGSGSGTDFTLTISSLQPEDFATYYCQQSNEDPWTFGGGTKVEIK
B8: IL4-1040 (antibody, human IgG1, kappa, V domains shown)
VH: EVTLRESGPALVKPTQTLTLTCTFSGFSLSNFGEGLSWIRQPPGKGLEWLAHIYWDDDKRYNPSLKSRLTISKDTSRNQVVLTMTNMDPVDTATYYCARRETVFYWYFDVWGQGTTVTVSS
VL: DIQMTQSPSSLSASVGDRVTITCRASQSVDEEGDSYMNWYQQKPGKAPKLLIYAASNLESGVPSRFSGSGSGTDFTLTISSLQPEDFATYYCQQSNKDPPTFGGGTKVEIKR
B9: IL4-0037 (antibody, IgG1, V domains shown)
VH: EVTLRESGPALVKPTQTLTLTCTFSGFSLSNFGEGLSWIRQPPGKGLEWLAHIYWDDDKRYSTSLKTRLTISKDTSRNQVVLTMTNMDPVDTATYYCARRETVFYWYFDVWGQGTTVTVSS
VL: DIQMTQSPSSLSASVGDRVTITCKASQSVDEDGDSYMNWYQQKPGKAPKLLIYAASNLESGVPSRFSGSGSGTDFTLTISSLQPEDFATYYCQQSNEDPPTFGGGTKVEIK
B10: IL4-0749 (antibody, human IgG1, kappa, V domains shown)
VH: EVTLRESGPALVKPTQTLTLTCTFSGFSLSNFGEGLSWIRQPPGKGLEWLAHIYWDDDKRYNPSLKSRLTISKDTSRNQVVLTMTNMDPVDTATYYCARRETVFYWYFDVWGQGTTVTVSS
VL: DIQMTQSPSSLSASVGDRVTITCRASQSVDEEGDSYMNWYQQKPGKAPKLLIYAASNLESGVPSRFSGSGSGTDFTLTISSLQPEDFATYYCQQSNEDPPTFGGGTKVEIKR
B11: IL4-0157 (antibody, IgG1, V domains shown)
VH: EVTLRESGPALVKPTQTLTLTCTFSGFSLSNFGEGLSWIRQPPGKGLEWLAHIYWDDDKRYSTSLKTRLTISKDTSRNQVVLTMTNMDPVDTATYYCARRETVFYWYFDVWGQGTTVTVSS
VL: DIQMTQSPSSLSASVGDRVTITCRASQSVDEEGDSYMNWYQQKPGKAPKLLIYAASNLESGVPSRFSGSGSGTDFTLTISSLQPEDFATYYCQQSHKDPPTFGGGTKVEIK
B12: IL4-0002 (antibody, human IgG1, kappa)
heavy: EVTLRESGPALVKPTQTLTLTCTFSGFSLSNFGEGLSWIRQPPGKGLEWLAHIYWDDDKRYNPSLKSRLTISKDTSRNQVVLTMTNMDPVDTATYYCARRETVFYWYFDVWGQGTTVTVSSASTKGPSVFPLAPSSKSTSGGTAALGCLVKDYFPEPVTVSWNSGALTSGVHTFPAVLQSSGLYSLSSVVTVPSSSLGTQTYICNVNHKPSNTKVDKKVEPKSCDKTHTCPPCPAPEAAGAPSVFLFPPKPKDTLMISRTPEVTCVVVDVSHEDPEVKFNWYVDGVEVHNAKTKPREEQYNSTYRVVSVLTVLHQDWLNGKEYKCKVSNKALPAPIEKTISKAKGQPREPQVYTLPPSREEMTKNQVSLTCLVKGFYPSDIAVEWESNGQPENNYKTTPPVLDSDGSFFLYSKLTVDKSRWQQGNVFSCSVMHEALHNHYTQKSLSLSPGK
light: DIQMTQSPSSLSASVGDRVTITCKASQSVDEDGDSYMNWYQQKPGKAPKLLIYAASNLESGVPSRFSGSGSGTDFTLTISSLQPEDFATYYCQQSNEDPPTFGGGTKVEIKRTVAAPSVFIFPPSDEQLKSGTASVVCLLNNFYPREAKVQWKVDNALQSGNSQESVTEQDSKDSTYSLSSTLTLSKADYEKHKVYACEVTHQGLSSPVTKSFNRGEC
B13: IL4-1347 (antibody, human IgG1, kappa, V domains shown)
VH: QVTLRESGPALVKPTQTLTLTCTFSGFSLSTSGMGVSWIRQPPGKGLEWLAHIYWDDDKRYNPSLKSRLTISKDTSRNQVVLTMTNMDPVDTATYYCARRETVFYWYFDVWGRGTPVTVSS
VL: DIQMTQSPSSLSASVGDRVTITCKASQSVDEDGDSYMNWYQQKPGKAPKLLIYAASNLESGVPSRFSGSGSGTDFTLTISSLQPEDFATYYCQQSNEDPPTFGGGTKVEIKR
B14: IL4-1358 (antibody, IgG1, V domains shown)
VH: QVTLRESGPALVKPTQTLTLTCTFSGFSLSTWGEGVSWIRQPPGKGLEWLAHIYWDDDKRYNPSLKSRLTISKDTSRNQVVLTMTNMDPVDTATYYCARRETVFYWYFDVWGRGTPVTVSS
VL: DIQMTQSPSSLSASVGDRVTITCKASQSVDEDGDSYMNWYQQKPGKAPKLLIYAASNLESGVPSRFSGSGSGTDFTLTISSLQPEDFATYYCQQSNEDPPTFGGGTKVEIK
B15: IL4-1350 (antibody, IgG1, V domains shown)
VH: QVTLRESGPALVKPTQTLTLTCTFSGFSLSTWGSGVSWIRQPPGKGLEWLAHIYWDDDKRYNPSLKSRLTISKDTSRNQVVLTMTNMDPVDTATYYCARRETVFYWYFDVWGRGTPVTVSS
VL: DIQMTQSPSSLSASVGDRVTITCKASQSVDEDGDSYMNWYQQKPGKAPKLLIYAASNLESGVPSRFSGSGSGTDFTLTISSLQPEDFATYYCQQSNEDPPTFGGGTKVEIK
B16: IL4-1352 (antibody, IgG1, V domains shown)
VH: QVTLRESGPALVKPTQTLTLTCTFSGFSLSNWGMGVSWIRQPPGKGLEWLAHIYWDDDKRYNPSLKSRLTISKDTSRNQVVLTMTNMDPVDTATYYCARRETVFYWYFDVWGRGTPVTVSS
VL: DIQMTQSPSSLSASVGDRVTITCKASQSVDEDGDSYMNWYQQKPGKAPKLLIYAASNLESGVPSRFSGSGSGTDFTLTISSLQPEDFATYYCQQSNEDPPTFGGGTKVEIK
B17: IL4-1356 (antibody, IgG1, V domains shown)
VH: QVTLRESGPALVKPTQTLTLTCTFSGFSLLTFGSGVSWIRQPPGKGLEWLAHIYWDDDKRYNPSLKSRLTISKDTSRNQVVLTMTNMDPVDTATYYCARRETVFYWYFDVWGRGTPVTVSS
VL: DIQMTQSPSSLSASVGDRVTITCKASQSVDEDGDSYMNWYQQKPGKAPKLLIYAASNLESGVPSRFSGSGSGTDFTLTISSLQPEDFATYYCQQSNEDPPTFGGGTKVEIK

target: T1, recombinant human IL-33 (R&D Systems 3625-IL), reduced with DTT (human, UniProt O95760 112-270, limits assumed); assay: cell-based or functional assay
T1 sequence (looked up): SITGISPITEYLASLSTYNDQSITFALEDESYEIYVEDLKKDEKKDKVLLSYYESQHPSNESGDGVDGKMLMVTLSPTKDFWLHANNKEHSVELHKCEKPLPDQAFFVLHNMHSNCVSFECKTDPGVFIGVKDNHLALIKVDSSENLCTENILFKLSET

Row | Binder | IC50 [nM] versus reduced human IL-33 (R&D), IC50 (AVE) [nM]
1 | B1 | 0.014
2 | B2 | 0.013
3 | B3 | 0.013
4 | B4 | 0.01
5 | B5 | 0.007

target: human IL-13 (human, UniProt P35225 35-146); assay: cell-based or functional assay
Sequence (P35225 35-146 limits assumed, form in doubt): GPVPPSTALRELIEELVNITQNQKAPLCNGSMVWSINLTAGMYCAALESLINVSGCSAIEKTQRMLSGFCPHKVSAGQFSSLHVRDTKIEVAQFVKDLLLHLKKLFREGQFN

Row | Binder | CD23: Fold bioactivity relative to IL13-0001 [fold] | CD23: Fold bioactivity relative to IL13-1307 [fold] | CD23 IC50 [pM] | pSTAT6: Fold bioactivity relative to IL13-0001 [fold] | pSTAT6: Fold bioactivity relative to IL13-1307 [fold] | pSTAT6 IC50 [pM]
6 | B6 | 0.7 | 21.3 | 14.4 | 2.2 | 3.3 | 42.7
7 | B7 | 0.9 | 26.5 | 11.5 | 1.1 | 1.6 | 87

target: T2, human IL-4 (human, UniProt P05112 25-153); assay: cell-based or functional assay
T2 sequence (looked up): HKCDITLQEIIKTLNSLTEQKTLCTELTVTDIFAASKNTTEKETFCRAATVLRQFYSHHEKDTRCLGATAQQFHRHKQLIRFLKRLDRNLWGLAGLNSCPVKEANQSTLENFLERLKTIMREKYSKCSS

Row | Binder | CD23: Fold bioactivity relative to IL4-0002 [fold] | CD23 IC50 [pM]
8 | B8 | 0.7 | 3.2
9 | B9 | 1.3 | 1.6
10 | B10 | 0.9 | 2.4
11 | B11 | 0.2 | 9.3
12 | B12 | 1 | 2.1

target: T2, human IL-4; assay: cell-based or functional assay; remark: another data set of the same source

Row | Binder | CD23: Fold bioactivity relative to IL4-1285 [fold] | CD23 IC50 [pM]
13 | B13 | 1.5 | 65.2
14 | B14 | 5.7 | 16.8
15 | B15 | 5.4 | 17.9
16 | B16 | 4.9 | 19.6
17 | B17 | 2.1 | 44.9
